Data reported in patent US20220267412A1 (SERPLUS TECHNOLOGY, published 2022).
Each block holds one binder with its values, some of them ahead of it.

B2: rhsB1M*, post-translationally modified (oxidized) monomeric form of rhsB1-cys344 (other)
chain: MEQLSSANTRFALDLFLALSENNPAGNIFISPFSISSAMAMVFLGTRGNTAAQLSKTFHFNTVEEVHSRFQSLNADINKRGASYILKLANRLYGEKTYNFLPEFLVSTQKTYGADLASVDFQHASEDARKTINQWVKGQTEGKIPELLASGMVDNMTKLVLVNAIYFKGNWKDKFMKEATTNAPFRLNKKDRKTVKMMYQKKKFAYGYIEDLKCRVLELPYQGEELSMVILLPDDIEDESTGLKKIEEQLTLEKLHEWTKPENLDFIEVNVSLPRFKLEESYTLNSDLARLGVQDLFNSSKADLSGMSGARDIFISKIVHKSFVEVNEEGTEAAAATAGIATFCMLMPEENFTADHPFLFFIRHNSSGSILFLGRFSSP
modifications: Cys-344 in an irreversibly oxidized state (chemical nature of the modification not determined)
B3: rhsB1D, intermolecular disulfide-bonded dimeric form of rhsB1-cys344 (other)
chain: MEQLSSANTRFALDLFLALSENNPAGNIFISPFSISSAMAMVFLGTRGNTAAQLSKTFHFNTVEEVHSRFQSLNADINKRGASYILKLANRLYGEKTYNFLPEFLVSTQKTYGADLASVDFQHASEDARKTINQWVKGQTEGKIPELLASGMVDNMTKLVLVNAIYFKGNWKDKFMKEATTNAPFRLNKKDRKTVKMMYQKKKFAYGYIEDLKCRVLELPYQGEELSMVILLPDDIEDESTGLKKIEEQLTLEKLHEWTKPENLDFIEVNVSLPRFKLEESYTLNSDLARLGVQDLFNSSKADLSGMSGARDIFISKIVHKSFVEVNEEGTEAAAATAGIATFCMLMPEENFTADHPFLFFIRHNSSGSILFLGRFSSP
modifications: intermolecular disulfide bond Cys-344:Cys-344 between the two monomers
B8: human neutrophil cathepsin G (enzyme, UniProt P08311 21-244, looked up)
chain: IIGGRESRPHSRPYMAYLQIQSPAGQSRCGGFLVREDFVLTAAHCWGSNINVTLGAHNIQRRENTQQHITARRAIRHPQYNQRTIQNDIMLLQLSRRVRRNRNVNPVALPRAQEGLRPGTLCTVAGWGRVSMRRGTDTLREVQLRVQRDRQCLRIFGSYDPRRQICVGDRRERKAAFKGDSGGPLLCNNVAHGIVSYGKSSGVPPEVFTRVSSFLPWIRTTMRS
notes: Bought purified enzyme; also called CatG

Key:
[1] = molecular target: T1, human neutrophil elastase (human, UniProt P08246 30-247, limits assumed); test: cell-based or functional assay
T1 sequence (looked up): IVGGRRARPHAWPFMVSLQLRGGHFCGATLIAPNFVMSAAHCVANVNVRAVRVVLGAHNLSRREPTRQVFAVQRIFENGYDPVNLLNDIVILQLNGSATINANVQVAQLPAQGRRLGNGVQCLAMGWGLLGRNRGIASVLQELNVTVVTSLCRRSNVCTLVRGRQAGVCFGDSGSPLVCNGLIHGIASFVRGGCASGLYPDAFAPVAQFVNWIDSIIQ

[2] = molecular target: porcine pancreatic elastase (porcine, UniProt P00772 27-266); test: cell-based or functional assay
[3] = molecular target: B8; test: cell-based or functional assay
[4] = molecular target: TLCK-treated bovine alpha chymotrypsin (bovine, UniProt P00766 1-13; P00766 16-146; P00766 149-245); test: cell-based or functional assay
neutrophil proteinase 3 = molecular target: T2, neutrophil proteinase 3 (UniProt P24158 28-248, limits assumed); test: cell-based or functional assay
T2 sequence (looked up): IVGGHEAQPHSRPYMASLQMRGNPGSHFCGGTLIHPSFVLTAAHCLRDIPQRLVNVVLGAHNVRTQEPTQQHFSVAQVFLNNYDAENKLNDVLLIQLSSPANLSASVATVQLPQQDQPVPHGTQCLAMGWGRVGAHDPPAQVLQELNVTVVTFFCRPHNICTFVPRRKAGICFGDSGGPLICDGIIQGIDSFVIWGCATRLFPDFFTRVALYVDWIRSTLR

[5] = molecular target: B3; test: SDS-PAGE of enzyme:serpin complexes, no 2-ME
[6] = molecular target: B2; test: SDS-PAGE of enzyme:serpin complexes, no 2-ME

Chain of porcine pancreatic elastase (P00772 27-266): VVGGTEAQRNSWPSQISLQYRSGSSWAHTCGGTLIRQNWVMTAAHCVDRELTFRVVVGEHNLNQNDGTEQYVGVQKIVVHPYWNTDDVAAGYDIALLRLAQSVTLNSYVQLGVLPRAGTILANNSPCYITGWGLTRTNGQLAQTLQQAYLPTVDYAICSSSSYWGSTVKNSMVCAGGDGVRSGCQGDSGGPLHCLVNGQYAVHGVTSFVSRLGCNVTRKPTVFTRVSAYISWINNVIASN

Binder: B2
stoichiometry of inhibition (SOI), with 2-ME [1]: ~13 molar ratio inhibitor:enzyme
stoichiometry of inhibition (SOI), with or without 2-ME [4]: ~3 molar ratio inhibitor:enzyme

Binder: B3
SOI with CatG against SOI with BC [3]: ~2 fold of the SOI with BC
stoichiometry of inhibition (SOI), no 2-ME [4]: ~1 molar ratio inhibitor:enzyme

B5: human serpin B1 C344A variant (other)
chain: MEQLSSANTRFALDLFLALSENNPAGNIFISPFSISSAMAMVFLGTRGNTAAQLSKTFHFNTVEEVHSRFQSLNADINKRGASYILKLANRLYGEKTYNFLPEFLVSTQKTYGADLASVDFQHASEDARKTINQWVKGQTEGKIPELLASGMVDNMTKLVLVNAIYFKGNWKDKFMKEATTNAPFRLNKKDRKTVKMMYQKKKFAYGYIEDLKCRVLELPYQGEELSMVILLPDDIEDESTGLKKIEEQLTLEKLHEWTKPENLDFIEVNVSLPRFKLEESYTLNSDLARLGVQDLFNSSKADLSGMSGARDIFISKIVHKSFVEVNEEGTEAAAATAGIATFAMLMPEENFTADHPFLFFIRHNSSGSILFLGRFSSP
amount of purified protein to fully inhibit PPE (typically 160 nM, 200 uL, +40 mM 2-ME) [2]: 1 µg

Binder: B8
binding result [5]: binds
binding result [6]: binds

Second part, the binder after the results:

stoichiometry of inhibition (SOI) [1]: ~2.1 molar ratio inhibitor:enzyme
amount of purified protein to fully inhibit PPE (typically 160 nM, 200 uL, +40 mM 2-ME) [2]: 1 µg
SOI with CatG against SOI with BC [3]: ~2 fold of the SOI with BC
inhibition of CatG, reduced dimer against unreduced dimer [3]: ~2 fold against the unreduced dimer
inhibition of cathepsin G, monomer against dimer [3]: 2 fold more effective than rhsB1D
inhibition of chymotrypsin, monomer against dimer [4]: 2 fold more effective than rhsB1D
stoichiometry of inhibition (SOI), with 2-ME [4]: ~0.5 molar ratio inhibitor:enzyme
B1: recombinant human serpin B1, wild type (rhsB1-cys344), reduced active monomer (other)
chain: MEQLSSANTRFALDLFLALSENNPAGNIFISPFSISSAMAMVFLGTRGNTAAQLSKTFHFNTVEEVHSRFQSLNADINKRGASYILKLANRLYGEKTYNFLPEFLVSTQKTYGADLASVDFQHASEDARKTINQWVKGQTEGKIPELLASGMVDNMTKLVLVNAIYFKGNWKDKFMKEATTNAPFRLNKKDRKTVKMMYQKKKFAYGYIEDLKCRVLELPYQGEELSMVILLPDDIEDESTGLKKIEEQLTLEKLHEWTKPENLDFIEVNVSLPRFKLEESYTLNSDLARLGVQDLFNSSKADLSGMSGARDIFISKIVHKSFVEVNEEGTEAAAATAGIATFCMLMPEENFTADHPFLFFIRHNSSGSILFLGRFSSP

loss of PR3 inhibitory activity, 2-fold molar excess of inhibitor (neutrophil proteinase 3): ~40 % of inhibitory activity lost
B4: peroxynitrite oxidized (inactivated) wild-type rhsB1 (other)
chain: MEQLSSANTRFALDLFLALSENNPAGNIFISPFSISSAMAMVFLGTRGNTAAQLSKTFHFNTVEEVHSRFQSLNADINKRGASYILKLANRLYGEKTYNFLPEFLVSTQKTYGADLASVDFQHASEDARKTINQWVKGQTEGKIPELLASGMVDNMTKLVLVNAIYFKGNWKDKFMKEATTNAPFRLNKKDRKTVKMMYQKKKFAYGYIEDLKCRVLELPYQGEELSMVILLPDDIEDESTGLKKIEEQLTLEKLHEWTKPENLDFIEVNVSLPRFKLEESYTLNSDLARLGVQDLFNSSKADLSGMSGARDIFISKIVHKSFVEVNEEGTEAAAATAGIATFCMLMPEENFTADHPFLFFIRHNSSGSILFLGRFSSP
modifications: oxidized by peroxynitrite (Cys-344 per the filing; chemical nature not determined)

amount of purified protein to fully inhibit PPE (typically 160 nM, 200 uL, +40 mM 2-ME) [2]: 1.5 µg
B6: human serpin B1 C344V variant (other)
chain: MEQLSSANTRFALDLFLALSENNPAGNIFISPFSISSAMAMVFLGTRGNTAAQLSKTFHFNTVEEVHSRFQSLNADINKRGASYILKLANRLYGEKTYNFLPEFLVSTQKTYGADLASVDFQHASEDARKTINQWVKGQTEGKIPELLASGMVDNMTKLVLVNAIYFKGNWKDKFMKEATTNAPFRLNKKDRKTVKMMYQKKKFAYGYIEDLKCRVLELPYQGEELSMVILLPDDIEDESTGLKKIEEQLTLEKLHEWTKPENLDFIEVNVSLPRFKLEESYTLNSDLARLGVQDLFNSSKADLSGMSGARDIFISKIVHKSFVEVNEEGTEAAAATAGIATFVMLMPEENFTADHPFLFFIRHNSSGSILFLGRFSSP

amount of purified protein to fully inhibit PPE (typically 160 nM, 200 uL, +40 mM 2-ME) [2]: 3.5 µg
B7: human serpin B1 C344G variant (other)
chain: MEQLSSANTRFALDLFLALSENNPAGNIFISPFSISSAMAMVFLGTRGNTAAQLSKTFHFNTVEEVHSRFQSLNADINKRGASYILKLANRLYGEKTYNFLPEFLVSTQKTYGADLASVDFQHASEDARKTINQWVKGQTEGKIPELLASGMVDNMTKLVLVNAIYFKGNWKDKFMKEATTNAPFRLNKKDRKTVKMMYQKKKFAYGYIEDLKCRVLELPYQGEELSMVILLPDDIEDESTGLKKIEEQLTLEKLHEWTKPENLDFIEVNVSLPRFKLEESYTLNSDLARLGVQDLFNSSKADLSGMSGARDIFISKIVHKSFVEVNEEGTEAAAATAGIATFGMLMPEENFTADHPFLFFIRHNSSGSILFLGRFSSP
